The text below walks through data of patent US20160075789A1.

Experiment [1] addresses Fc-EDA1 (human). Nature of the experiment: sandwich ELISA of Fc-EDA1 pre-incubated in buffer or mouse serum (FIG. 26).
Experiment [2] addresses Fc-EDA1 (human). As to the kind of experiment: sandwich ELISA, EctoD2 at capture, biotinylated EctoD3 at revelation (FIG. 24).
The target of experiment [3] is Fc-EDA1 (human). Nature of the experiment: cell-based or functional assay.
Sequence of Fc-EDA1 (human) (Q92838 249-385): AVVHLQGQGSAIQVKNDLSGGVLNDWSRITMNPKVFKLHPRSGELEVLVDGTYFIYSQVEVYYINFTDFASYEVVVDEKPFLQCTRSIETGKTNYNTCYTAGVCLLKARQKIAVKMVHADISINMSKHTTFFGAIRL

B1: mAbEDA1-EctoD3 (antibody, mouse IgG1, V domains shown)
VH: QVQLHQSGAELARPGASVKLSCKASGYTFTSYGISWVKQRTGQGLEWIGEVYPRSGDTYYHDYFEGKATLTADKSSSTAYMELRSLTSEDSAVYFCARGDYADVWGTGTTVTVSS
VL: DIVLTQSPASLAVSLGQRATISCRASKSVSTFGNSYMLWYQQKPGQPPKLLIYLASNLESGVPARFSGSGSGTDFTLNIHPVEEEDAATYYCQNSRELPYTFGGGTKLEIKR
B1: the most sensitive detection of Fc-EDA1 with Fc-EDA1 (human) [1] is less than 1 ng/mL. In the experiment with Fc-EDA1 (human) [2], this molecule yielded a concentration of Fc-EDA1 readily detected of less than 1 ng/mL.

B2: mAbEDA1-EctoD2 (antibody, mouse IgG1, V domains shown)
VH: EVMLEESGGGLVKSGGSLKLSCAASGFTFSTYAMSWVRQTPGKRLEWVAAISDGGDNTYYLDSVKGRFTISRDNAKNTLYLQMSSLRSEDSALYYCARQYNDYEAMDYWGQGTSLTVSS
VL: DIVLTQSPTSLAVSLGQRATISCRASESVDSYGSSFMHWYQQKPGQPPKLLFYRASNLESGIPARFSGSGSRTDFTLTINPVEADDVATYYCQQSNEDPFTFGSGTKLEIKR
B2: in the experiment with Fc-EDA1 (human) [3], the cytotoxicity assay using EDAR-Fas Jurkat cells (PMS/MTS viability): antibody concentration at which 40 ng/mL of Fc-EDA1 is completely inhibited came to 125 ng/mL and the cytotoxicity assay using EDAR-Fas Jurkat cells: stoichiometry of inhibition (antibodies per Fc-EDA1) is 5. Moreover, the most sensitive detection of Fc-EDA1 with Fc-EDA1 (human) [1] is less than 1 ng/mL. Besides, the concentration of Fc-EDA1 readily detected with Fc-EDA1 (human) [2] is less than 1 ng/mL.
